Source: patent US20240254229A1 (Molecular Partners, published 2024)

T1: biotinylated extracellular domain of human CD123 (SEQ ID NO: 88), Fc and Avi tagged (human, UniProt P26951 19-303, biotinylated with BirA-GST (Avi tag))
T1 construct: also called hCD123
T1 sequence: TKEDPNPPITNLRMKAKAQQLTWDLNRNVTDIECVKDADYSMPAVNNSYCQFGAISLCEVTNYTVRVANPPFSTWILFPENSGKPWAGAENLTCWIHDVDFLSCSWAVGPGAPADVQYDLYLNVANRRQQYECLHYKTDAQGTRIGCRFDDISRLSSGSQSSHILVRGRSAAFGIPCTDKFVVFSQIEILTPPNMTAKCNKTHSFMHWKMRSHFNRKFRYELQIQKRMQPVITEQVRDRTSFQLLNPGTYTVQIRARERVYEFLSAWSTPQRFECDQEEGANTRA

T2: extracellular domain of human CD70 (SEQ ID NO: 89), hCD70-Fc-trimer, ACRO Biosystems (human, UniProt P32970 52-193, chemically biotinylated where the biotinylated form was used)
T2 construct: also called human CD70-Fc-trimer; Bio.CD70
T2 sequence: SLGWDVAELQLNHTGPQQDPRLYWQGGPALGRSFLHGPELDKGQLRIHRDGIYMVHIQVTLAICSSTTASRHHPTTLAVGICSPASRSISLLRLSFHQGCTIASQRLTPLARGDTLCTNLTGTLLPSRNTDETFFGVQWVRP

T3: human scCD3εγ (scCD3εγ_Avi-Bio) (human, biotin on the C-terminal Avi-tag (in vitro, BirA) where the biotinylated form was used)
T3 construct: Used for all SPR and HTRF results on human CD3; also called recombinant human CD3; human CD3
T3 chain: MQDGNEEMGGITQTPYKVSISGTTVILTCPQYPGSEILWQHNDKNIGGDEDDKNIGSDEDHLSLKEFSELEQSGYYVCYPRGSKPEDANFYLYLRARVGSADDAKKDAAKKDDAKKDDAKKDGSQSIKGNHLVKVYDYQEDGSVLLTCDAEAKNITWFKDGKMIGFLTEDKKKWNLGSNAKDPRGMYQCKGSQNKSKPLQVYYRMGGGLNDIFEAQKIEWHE

B1: DARPin® protein #57 (designed binder)
chain: DLGKKLLEAARAGQDDEVRELLKAGADVNAKDYFSHTPLHLAARNGHLKIVEVLLKAGADVNAKDFAGKTPLHLAAADGHLEIVEVLLKAGADVNAQDIFGKTPADIAADAGHEDIAEVLQKAAGSPTPTPTTPTPTPTTPTPTPTGSDLGKKLLEAARAGQDDEVRELLKAGADVNAKDYFSHTPLHLAARNGHLKIVEVLLKAGADVNAKDFAGKTPLHLAAADGHLEIVEVLLKAGADVNAQDIFGKTPADIAADAGHEDIAEVLQKAAGSPTPTPTTPTPTPTTPTPTPTGSDLGIKLLTAAYDGQLDEVRILLKAGADVNAKDLRGQTPLHYAAGLGHLEIVEVLLKAGADVNAKDLHGWTPLHLAAWSGHLEIVEVLLKAGADVNAQDVEGVTPADLAAVQGHQDIAEVLQKAAGSPTPTPTTPTPTPTTPTPTPTGSDLGKKLLQAALEGQLDEVRELLKAGADVNAKDIEGYTPLHLAAALGHLEIVEVLLKAGADVNAKDQIGRTPLHLAAYKGHLEIVEVLLKAGADVNAQDIIGQTPADLAAQRGHQDIAEVLQKAAGSPTPTPTTPTPTPTTPTPTPTGSDLGKKLLLAAERGQLDEVRILLKAGADVNAKDRAEGYTPLHIAAYQGHLEIVEVLLKAGADVNAKDRYGKTPLHLAAISGHLEIVEVLLKAGADVNAQDNKGSTPADLAADYGHQDIAEVLQKAAGSPTGSDLGQKLLEAAWAGQDDEVRELLKAGADVNAKNSRGWTPLHTAAQTGHLEIFEVLLKAGADVNAKNDKRVTPLHLAAALGHLEIVEVLLKAGADVNARDSWGTTPADLAAKYGHQDIAEVLQKAA
notes: HSA-HSA-CD70-CD123-CD33-CD3; not shown: N-terminal His-tag
B2: DARPin® protein #56 (designed binder)
chain: DLGKKLLEAARAGQDDEVRELLKAGADVNAKDYFSHTPLHLAARNGHLKIVEVLLKAGADVNAKDFAGKTPLHLAAADGHLEIVEVLLKAGADVNAQDIFGKTPADIAADAGHEDIAEVLQKAAGSPTPTPTTPTPTPTTPTPTPTGSDLGKKLLEAARAGQDDEVRELLKAGADVNAKDYFSHTPLHLAARNGHLKIVEVLLKAGADVNAKDFAGKTPLHLAAADGHLEIVEVLLKAGADVNAQDIFGKTPADIAADAGHEDIAEVLQKAAGSPTPTPTTPTPTPTTPTPTPTGSDLGVKLLLAAERGQLDEVRILLKAGADVNAKDIAEGYTPLHIAAYQGHLEIVEVLLKAGADVNAKDRYGKTPLHLAAIGGHLEIVEVLLKAGADVNAQDNKGSTPADLAADYGHQDIAEVLQKAAGSPTPTPTTPTPTPTTPTPTPTGSDLGKKLLEAALEGQLDEVRELLKAGADVNAKDQEGYTPLHLAAALGHLEIVEVLLKAGADVNAKDQIGRTPLHLAAYKGHLEIVEVLLKAGADVNAQDIIGQTPADLAAQRGHQDIAEVLQKAAGSPTPTPTTPTPTPTTPTPTPTGSDLGIKLLTAAYDGQLDEVRILLKAGADVNAKDLRGQTPLHYAAGLGHLEIVEVLLKAGADVNAKDLHGWTPLHLAAWSGHLEIVEVLLKAGADVNAQDVEGVTPADLAAVQGHQDIAEVLQKAAGSPTPTPTTPTPTPTTPTPTPTGSDLGQKLLEAAWAGQDDEVRELLKAGADVNAKNSRGWTPLHTAAQTGHLEIFEVLLKAGADVNAKNDKRVTPLHLAAALGHLEIVEVLLKAGADVNARDSWGTTPADLAAKYGHQDIAEVLQKAA
notes: HSA-HSA-CD33-CD123-CD70-CD3; not shown: N-terminal His-tag

Key:
[1] = target: T1, biotinylated extracellular domain of …; experiment: SPR (Bruker Sierra SPR-32 Pro), hCD123 on IgG capture chip
Procedure: The binding affinities of selected multispecific ankyrin repeat proteins on recombinant targets were analyzed using ProteOn (BioRad) and Bruker Sierra SPR-32 Pro instruments. The measurements were performed according to standard procedures known to the person skilled in the art. For that, DARPin® protein #56 and DARPin® protein #57 of the invention were subcloned and expressed as described above into derivatives of the pQE30 (Qiagen) expression vectors, containing an N-terminal His-tag, two human serum album specific binding domains and CD70, CD123 and CD33 specific binding domains, followed by one CD3 specific binding domain.
Similarly, human target_hCD123 (SEQ ID NO: 88) was diluted in PBST (PBS, pH 7.4 containing 0.005% Tween 20®) and captured on a Bruker IgG Capture sensorchip to a level of around 177 resonance units (RU) using a Bruker Sierra SPR-32pro. The interaction of each tested ankyrin repeat protein and target_hCD123 was then measured by injecting 100 μl running buffer (PBS, pH 7.4 containing 0.005% Tween 200) containing three-fold serial dilutions of ankyrin repeat proteins covering a concentration range between 200 nM and 91 pM, followed by a running buffer flow for at least 1500 seconds at a constant flow rate of 25 μl/min (off-rate measurement). […] Each interaction was recorded in triplicates. […]

[2] = target: T4, Molm-13 N1 tumor cells (carrying CD123, CD33 and CD70) (human, UniProt P20138 18-364; P26951 19-378; P32970 1-193); experiment: flow cytometry on Molm-13 N1 cells, 20 uM HSA
T4 construct: whole, on cells; Not a complex: three separate antigens on one cell; also called Molm-13 N1 cells
Procedure: The determination of binding of several multispecific proteins to tumor cells was performed by Fluorescence Activated Cell Sorting (FACS) flow cytometry. Therefore, tumor cells (Molm-13 N1), were seeded at 100′000 cells per well in a 96 well plate. DARPin® protein #56, DARPin® protein #57, DARPin® protein #58, DARPin® protein #59, DARPin® protein #60, DARPin® protein #61 and DARPin® protein #62 were titrated down starting at 100 nM in 1:5 dilution ratio. Tumor cells were resuspended with diluted DARPin® proteins and incubated 60 minutes at 4° C. The assay was performed in PBS including 2% fetal bovine serum and human serum albumin 20 uM (HSA). After washing twice with Phosphate Buffer saline (PBS), DARPin® protein specific tumor cell binding was detected by adding unlabelled primary […] (anti-rabbit 1-1-1 antibody, CePower) at 2 ug/ml. An incubation step of at least 30 minutes at 4° C. followed. Afterwards, cells were washed with PBS and a secondary anti-rabbit antibody labelled with Alexa Fluor 647 antibody (ThermoFisher) at 2 ug/ml was added. The same incubation conditions applied. Finally, the cells were washed twice and resuspended in Cytofix fixation buffer (BD Biosciences) for 15 min at room temperature (RT). Median fluorescence intensities (MFI) of Alexa Fluor 647 DARPin® labelled cells were measured by Attune NxT (Thermo Fisher) using FlowJo software for analyses and GraphPad Prism 8 for data plotting.

[3] = target: T5, biotinylated extracellular domain of human CD33 (SEQ ID NO: 87), Fc and Avi tagged (human, UniProt P20138 18-259, biotinylated with BirA-GST (Avi tag)); experiment: SPR (ProteOn), DARPin immobilized, hCD33 as analyte
T5 construct: also called hCD33; human target hCD33
Procedure: For measuring the interaction with human CD33, DARPin® protein #56 and DARPin® protein #57 were diluted in 10 mM NaOAc pH 4.0 and immobilized on an NHS/EDC activated HC200M sensorchip (XanTec bioanalytics GmbH) to a level of around 1000 resonance units (RU) (SMA555) or 1400 Rus (PSC466) using a ProteOn (BioRad). The surface was deactivated using Ethanolamine. The interaction of the tested proteins and human target hCD33 (SEQ ID NO:87) was then measured by injecting 400 μl running buffer (PBS, pH 7.4 containing 0.005% Tween 200) containing three-fold serial dilutions of human target hCD33 covering a concentration range between 66.7 nM and 0.82 nM, followed by a running buffer flow for 500 seconds at a constant flow rate of 100 μl/min (off-rate measurement). After each measurement, a 10 min pause was introduced to allow for complete dissociation of the analyte. Each interaction was recorded in triplicates. The signals (i.e. resonance unit (RU) values) of the interspots and a reference injection (i.e. injection of running buffer only) were subtracted from the RU traces obtained injecting human hCD33 (double-referencing). Dissociation constants (KD) were calculated from the globally fitted on- and off-rates using standard 1:1-Langmuir model.

[4] = target: T2, extracellular domain of human CD70 (SEQ …); experiment: SPR (ProteOn), hCD70-Fc-trimer captured on protein A/G chip
Procedure: Briefly, human target CD70 (SEQ ID NO: 89; hCD70-Fc-trimer, ACRO Biosystems) was diluted in PBST (PBS, pH 7.4 containing 0.005% Tween 20®) and captured on a PAGD200L protein A/G sensorchip (XanTec bioanalytics GmbH) to a level of around 36 resonance units (RU) using a ProteOn (BioRad). The interaction of each tested ankyrin repeat protein and human CD70-Fc-trimer was then measured by injecting 400 μl running buffer (PBS, pH 7.4 containing 0.005% Tween 20®) containing three-fold serial dilutions of ankyrin repeat proteins covering a concentration range between 600 nM and 7.4 nM, followed by a running buffer flow for 2700 seconds at a constant flow rate of 100 μl/min (off-rate measurement). The regeneration was performed using 30 μl of 10 mM glycine pH 2 and hCD70-Fc-trimer was reinjected to prepare the surface for the next measurement. Each interaction was recorded in triplicates. The signals (i.e. resonance unit (RU) values) of the interspots and a reference injection (i.e. injection of running buffer only) were subtracted from the RU traces obtained injecting the ankyrin repeat protein (double-referencing). Dissociation constants (KD) were calculated from the globally fitted on- and off-rates using standard 1:1-Langmuir model.

[5] = target: T6, human serum albumin (human, UniProt P02768 25-609); experiment: SPR, set-up not described
T6 construct: also called HSA; SA

[6] = target: T3, human scCD3εγ (scCD3εγ_Avi-Bio); experiment: SPR, set-up not described

T6 sequence (P02768 25-609 limits assumed): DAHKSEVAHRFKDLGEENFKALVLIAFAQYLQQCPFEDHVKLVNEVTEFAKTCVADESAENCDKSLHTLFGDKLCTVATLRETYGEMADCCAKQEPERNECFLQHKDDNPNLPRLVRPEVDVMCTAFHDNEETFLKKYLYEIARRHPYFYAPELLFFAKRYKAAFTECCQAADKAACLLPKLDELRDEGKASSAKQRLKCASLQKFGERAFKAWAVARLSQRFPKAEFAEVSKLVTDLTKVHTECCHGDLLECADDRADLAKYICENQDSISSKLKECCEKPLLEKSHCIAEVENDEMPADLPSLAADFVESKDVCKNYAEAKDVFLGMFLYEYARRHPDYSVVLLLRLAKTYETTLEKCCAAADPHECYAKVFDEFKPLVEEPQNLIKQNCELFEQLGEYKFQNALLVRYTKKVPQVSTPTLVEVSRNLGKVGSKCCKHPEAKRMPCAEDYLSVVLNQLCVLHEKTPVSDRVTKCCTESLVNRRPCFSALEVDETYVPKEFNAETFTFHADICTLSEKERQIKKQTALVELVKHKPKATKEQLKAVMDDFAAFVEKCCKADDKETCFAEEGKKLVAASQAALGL
T4 sequence (P20138 18-364, one chain of several): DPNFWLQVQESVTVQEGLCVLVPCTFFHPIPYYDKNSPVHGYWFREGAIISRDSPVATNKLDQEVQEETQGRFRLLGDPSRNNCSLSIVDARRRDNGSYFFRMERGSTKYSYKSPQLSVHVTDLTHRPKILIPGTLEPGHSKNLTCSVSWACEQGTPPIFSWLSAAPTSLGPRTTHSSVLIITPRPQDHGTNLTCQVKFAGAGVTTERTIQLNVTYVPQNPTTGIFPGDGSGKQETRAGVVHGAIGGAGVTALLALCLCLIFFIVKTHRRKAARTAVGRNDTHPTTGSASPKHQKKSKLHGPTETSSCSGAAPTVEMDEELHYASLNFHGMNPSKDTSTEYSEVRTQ
T5 sequence (P20138 18-259 R69G): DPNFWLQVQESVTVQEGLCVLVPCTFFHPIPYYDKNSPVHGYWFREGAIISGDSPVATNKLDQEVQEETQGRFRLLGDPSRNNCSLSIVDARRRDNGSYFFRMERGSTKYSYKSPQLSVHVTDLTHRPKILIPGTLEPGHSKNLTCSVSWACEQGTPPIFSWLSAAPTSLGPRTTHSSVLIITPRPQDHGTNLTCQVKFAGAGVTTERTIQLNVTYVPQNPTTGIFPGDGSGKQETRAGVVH

| Binder | Kd [1] | EC50 [2] | Kd [3] | Kd [4] | Kd [5] | Kd [6] |
| --- | --- | --- | --- | --- | --- | --- |
| B1 | 0.094 nM | 0.13 nM | 12 nM | 0.82 nM | 110 nM | 29 nM |
| B2 | 0.056 nM | 0.26 nM | 5.1 nM | 0.61 nM | 120 nM | 24 nM |
